Measured values: publication PMC7689096, “Cyclizing Painkillers: Development of Backbone-Cyclic TAPS Analogs” (Frontiers in Chemistry, 2020)
Numbered stars: 1 amine (or outer) side, 2 acyl side, 3 side chain; on linkers, the order of the positions; unused ones are H or OH. Bridge positions count the residues as written; N and C are the ends. Square brackets hold non-standard residues; d marks the D form. Ends that are not written are not given here. Peptide text beside a SMILES is read from it. N(6-aminohexyl)Gly = O=C(CN(CCCCCCN[*:3])[*:1])[*:2]; NGly(3-aminopropyl) = O=C(CN(CCCN[*:3])[*:1])[*:2]; CO = O=C([*:1])[*:2]; Sar = CNCC(=O)O

How the values were obtained:
[1] = molecular target: T1, δ (DOP, OPRD2) opioid receptor (Mus musculus, UniProt P32300); test: DOP opioid receptor functional agonism in NG-10815 cells; format: cell-based, rat; details: At 10^−6 M, percent of control specific agonist response
T1 construct: NG-10815 cells which express significant endogenous levels of δ opioid receptors; host or cells: NG-10815 (NG108-15) mouse N18TG2 neuroblastoma x rat C6-BU-1 glioma hybrid cells
T1 sequence (P32300 whole entry): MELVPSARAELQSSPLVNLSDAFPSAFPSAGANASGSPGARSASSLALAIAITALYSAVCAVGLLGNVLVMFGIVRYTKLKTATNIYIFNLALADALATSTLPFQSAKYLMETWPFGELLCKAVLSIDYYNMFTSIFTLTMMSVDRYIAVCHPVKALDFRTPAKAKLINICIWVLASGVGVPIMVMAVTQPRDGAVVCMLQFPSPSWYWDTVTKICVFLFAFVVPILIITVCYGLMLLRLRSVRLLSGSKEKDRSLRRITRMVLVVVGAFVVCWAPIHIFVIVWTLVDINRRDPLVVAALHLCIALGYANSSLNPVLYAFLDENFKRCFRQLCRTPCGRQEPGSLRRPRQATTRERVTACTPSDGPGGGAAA
Method: (§1) Peptides were tested for μ (MOP, OPRM1) and δ (DOP, OPRD2) opioid receptor activation functional agonism and antagonism using CHO cells expressing human recombinant μ receptors and NG-10815 cells which express significant endogenous levels of δ opioid receptors. The cultures were incubated for 10 min at 37°C followed by impedance measurements of CHO cells and cAMP was assayed by the HTRF method using NG-10815 cells, according to CEREP standard assay protocols. The respective reference, non-peptide small molecules were tested concurrently with the TAPS analogs. The agonist compounds were: DPDPE (selective agonist of DOP receptor) and DAMGO (high MOP receptor specificity) and the antagonist compounds were: Naltrindole (selective DOP receptor antagonist) and CTOP (MOP receptor antagonist). […] The results are expressed as a percentage of respective control-specific response. […] These findings indicate that TAPS cyclic peptides are MOP selective full agonists. […] The cyclic TAPS peptide had lower activity than the linear parent TAPS peptide (90 ± 5%) – a finding that can be attributed to their restricted conformation relative to the flexible linear peptide conformation.
Evaluation of the Agonist Activity of Compounds at the Rat delta2 Receptor Endogenously Expressed in NG-10815 Cells, Determined by Measuring Their Effects on Impedance Modulation Using the CellKey (CDS) Detection Method
Cells are seeded onto 96-well plate coated with fibronectin at 2 × 10^5 cells/well in HBSS buffer (Invitrogen) + 20 mM HEPES (Invitrogen) with 0.1% BSA and allowed to equilibrate for 60 min at 37°C before the start of the experiment. Plates are placed onto the system and measurements are made at a temperature of 37°C. […] Impedance measurements are monitored for 10 min after ligand addition. The standard reference agonist is DPDPE, which is tested in each experiment at several concentrations to generate a concentration-response curve from which its EC50 value is calculated.
The respective reference, non-peptide small molecules were tested concurrently with the TAPS analogs; Agonist compounds DPDPE ([D-Pen2,D-Pen5]enkephalin), selective agonist of DOP receptor at 2 × 10^−9 M and DAMGO ([D-Ala2, N-MePhe4, Gly-ol] enkephalin), high MOP specificity at 2.5 × 10^−9 M; Antagonist compounds: naltrindole 7-(cyclopropylmethyl)-6,7-dehydro-4,5α-epoxy-3,14-dihydroxy-6,7-2′,3′-indolomorphinan hydrochloride, selective DOP antagonist, 5 × 10^−10 M and CTOP (D-Phe-Cys-Tyr-D-Trp-Orn-Thr-Pen-Thr-NH2), MOP antagonist at 3.4 × 10^−7 M. Depending on the assay volume and solvent tolerance, the stock solutions were diluted to [100×], [333×] or [1,000×] in 100% DMEM solvent, then either added directly or further diluted to [10×] or [5×] in H2O or Hank's balanced salt solution (HBSS) before addition to the assay well (final solvent concentration kept constant). The cultures were incubated for 10 min at 37°C followed by impedance measurements using cellular dielectric spectroscopy of CHO cells and cAMP was assayed by homogeneous time resolved fluorescence (HTRF) method using NG-10815 cells, according to CEREP standard assay protocols (https://euroscreenfast.com/assays/opioid-orl1-camp-fast-0360c; https://euroscreenfast.com/assays/opioid-op1-delta-camp-fast-0379c). […]

[2] = molecular target: T1, δ (DOP, OPRD2) opioid receptor; test: DOP opioid receptor functional antagonism in NG-10815 cells; format: cell-based, rat; details: Between 10^−9-10^−6 M, percent inhibition of control specific agonist response
Method: as §1
(§2) The respective reference, non-peptide small molecules were tested concurrently with the TAPS analogs; Agonist compounds DPDPE ([D-Pen2,D-Pen5]enkephalin), selective agonist of DOP receptor at 2 × 10^−9 M and DAMGO ([D-Ala2, N-MePhe4, Gly-ol] enkephalin), high MOP specificity at 2.5 × 10^−9 M; Antagonist compounds: naltrindole 7-(cyclopropylmethyl)-6,7-dehydro-4,5α-epoxy-3,14-dihydroxy-6,7-2′,3′-indolomorphinan hydrochloride, selective DOP antagonist, 5 × 10^−10 M and CTOP (D-Phe-Cys-Tyr-D-Trp-Orn-Thr-Pen-Thr-NH2), MOP antagonist at 3.4 × 10^−7 M. Depending on the assay volume and solvent tolerance, the stock solutions were diluted to [100×], [333×] or [1,000×] in 100% DMEM solvent, then either added directly or further diluted to [10×] or [5×] in H2O or Hank's balanced salt solution (HBSS) before addition to the assay well (final solvent concentration kept constant). The cultures were incubated for 10 min at 37°C followed by impedance measurements using cellular dielectric spectroscopy of CHO cells and cAMP was assayed by homogeneous time resolved fluorescence (HTRF) method using NG-10815 cells, according to CEREP standard assay protocols (https://euroscreenfast.com/assays/opioid-orl1-camp-fast-0360c; https://euroscreenfast.com/assays/opioid-op1-delta-camp-fast-0379c). The results (mean of three experiments) are expressed as a percent of control specific agonist response [(measured TAPS specific response/control specific agonist response) × 100] and as a percent inhibition of control specific agonist response [100 – (measured TAPS specific response/control specific agonist response) × 100] obtained in the presence of the TAPS compounds. Results showing a stimulation or an inhibition lower than 25% were considered not significant and mostly attributable to variability of the signal around the control level. Results showing a stimulation or an inhibition higher than 50% were considered to represent significant effects of the TAPS compounds.

[3] = molecular target: T2, human recombinant μ (MOP, OPRM1) receptor (Homo sapiens, UniProt P35372); test: MOP opioid receptor functional agonism in CHO cells expressing human recombinant μ receptors; format: cell-based; details: At 10^−6 M, percent of control specific agonist response, values lower than 25% not significant
T2 construct: host or cells: CHO cells
T2 sequence (P35372 whole entry): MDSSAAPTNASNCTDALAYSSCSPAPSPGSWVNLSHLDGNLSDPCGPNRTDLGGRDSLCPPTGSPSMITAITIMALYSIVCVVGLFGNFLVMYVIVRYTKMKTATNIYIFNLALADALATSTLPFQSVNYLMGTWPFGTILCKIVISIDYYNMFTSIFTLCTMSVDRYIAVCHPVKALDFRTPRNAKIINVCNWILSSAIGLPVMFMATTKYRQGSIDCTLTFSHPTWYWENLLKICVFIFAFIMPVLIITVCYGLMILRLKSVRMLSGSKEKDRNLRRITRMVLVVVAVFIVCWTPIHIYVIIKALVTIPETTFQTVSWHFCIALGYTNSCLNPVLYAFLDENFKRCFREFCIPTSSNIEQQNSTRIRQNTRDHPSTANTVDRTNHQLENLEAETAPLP
Method: as §1
Evaluation of the Agonist Activity of Compounds at the Human μ Receptor in Transfected CHO Cells, Determined by Measuring Their Effects on cAMP modulation Using the HTRF Detection Method
Thereafter, the adenylyl cyclase activator NKH 477 is added at a final concentration of […]. Following 10 min incubation at 37°C, the cells are lysed and the fluorescence acceptor (D2-labeled cAMP) and fluorescence donor (anti-cAMP antibody labeled with europium cryptate) are added. After 60 min at room temperature, the fluorescence transfer is measured at lex = 337 nm and lem = 620 and 665 nm using a microplate reader (Rubystar, BMG). The cAMP concentration is determined by dividing the signal measured at 665 nm by that measured at 620 nm (ratio). The results are expressed as a percent of the control response to 1 μM DAMGO. The standard reference agonist is DAMGO, which is tested in each experiment at several concentrations to generate a concentration-response curve from which its EC50 value is calculated.
as §2, with “Results showing a stimulation or an inhibition lower than 25% were considered not significant and mostly attributable to variability of the signal around the control level. Results showing a stimulation or an inhibition higher than 50% were considered to represent significant effects of the TAPS compounds.” left out

[4] = molecular target: T2, human recombinant μ (MOP, OPRM1) receptor; test: MOP opioid receptor functional antagonism in CHO cells expressing human recombinant μ receptors; format: cell-based; details: Between 10^−9-10^−6 M, percent inhibition of control specific agonist response, values lower than 25% not significant
Method: as §1, §2

[5] = system: Brush Border Membrane Vesicle (BBMV) enzymes; test: in vitro; format: in vitro ADME; details: rat BBMV
Method: A few of the peptides from the library were selected for further evaluation. The TAPS c(2-6) representative MOP agonists, TAPS c(6-2) and TAPS c(4-2) were not evaluated for opioid receptor interaction, and two non-active cyclic peptides, TAPS c(3-2) and TAPS c(6-6), having a smaller and larger ring sizes, respectively. The backbone-cyclic peptide stability in the GI tract was evaluated using rat origin pooled Brush Border Membrane Vesicle (BBMV) enzymes and were compared to the stability of linear TAPS (Figure 6).
1. Mass spectrometry analyses … 1
2. Metabolic Stability in BBMVs … 1
2.1 Preparation of BBMVs … 1
2.2 Experimental protocol for BBMVs … 2
3.1 In vitro cell based model: Caco-2 cell culture permeability studies … 2 3.1.1 Growth and Maintenance of the Cells: … 2
3.1.2 Preparation of the Cells for Transport Studies: … 2
3.2 Experimental Protocol … 2
3.3 Data Analysis of In Vitro Studies … 3
3.4 Statistical Analysis of the In Vitro Studies … 3
3.5 Statistical Analysis of Pharmacodynamic Studies … 3
3.6 Analytical Methods for Compound Concentration … 3
5. Supplementary Figures … 6
6. Supplementary Tables … 7
1. Mass spectrometry analyses
Mass spectra were acquired on a LCQ Fleet Ion Trap mass spectrometer (Thermo Scientific) utilizing electrospray ionization. For high resolution mass spectrometry (HRMS) analyses, the spectra were recorded on an Agilent 6550 iFunnel Q-TOF LC/MS system.
2. […]

[6] = system: mice; test: Mouse open field test (locomotor adverse effect); details: 5 mg/kg IP
Method: In the mouse open field test (OF test), the distance and speed the animal moves over a 5-min time period is recorded, giving an indication as to whether a medication administered affected its locomotor activity. TAPS c(2-6) (5 or 15 mg/kg) was administered via IP administration and compared to morphine (5 mg/kg) and vehicle (PBS).
Male ICR mice (Harlan, Israel) 7 weeks of age (25–27) were used for all pharmacodynamic experiments after 5-day acclimation to laboratory conditions. Animals were allowed free access to food (standard commercial, sterile rodent diet) and water throughout the experiments and kept in automatically controlled environmental conditions for temperature and humidity levels in a 12-h dark-light cycle.
Animals were placed in the OF apparatus for a period of 5 min. The apparatus utilizes computerized monitoring which measures the speed and distance the animal walks during the measurement period. […] Baseline measurements were taken 1 day before initiation of the experiments and again at 0.5, 1.5, 3, and 5 h post injection.

[7] = Caco-2 permeability assay; details: human

For “TAPS c(6-6): backbone-cyclic TAPS analog, urea bridge; ring size 22 (YRF[N(6-aminohexyl)Gly]-NH2; bridge 2-4 via CO; not fully specified (residue 2); also: urea bridge between the two N-alkyl chains)”, the “DOP agonist (%)” value [1] was 1%, the “DOP antagonist (%)” value [2] was 6% and the “MOP agonist (%)” value [3] was 21%. For the same molecule, the “MOP antagonist (%)” value [4] was 3%.

In the case of “TAPS c(3-3): backbone-cyclic TAPS analog, urea bridge; ring size 16 (YRF[NGly(3-aminopropyl)]-NH2; bridge 2-4 via CO; not fully specified (residue 2); also: urea bridge between the two N-alkyl chains)”, the “DOP agonist (%)” value [1] is reported as 14%, the “DOP antagonist (%)” value [2] is reported as 11% and the “MOP agonist (%)” value [3] is reported as 1%. The “MOP antagonist (%)” value [4] was 2%.

For CN(CC(=O)O)C(=O)[C@H](Cc1ccccc1)NC(=O)[C@@H](CCCN=C(N)N)NC(=O)[C@@H](N)Cc1ccc(O)cc1 [Linear, Tyr-D-Arg-Phe-Sar] (H-Y[dR]F[Sar]-OH), the metabolised at 0.5 h ([5]; male, Wistar, kidney or brush border membranes, pH 7.4, after treatment for 30 min, read-out: peptide degraded by intestinal enzymes) was greater than 80% and the “peptide fate with intestinal enzymes” value ([5]; after 60 min) was “decomposed”.

In the case of CN1CC[C@]23c4c5ccc(O)c4O[C@H]2[C@@H](O)C=C[C@H]3[C@H]1C5 [morphine, reference compound], the “locomotor effect (distance and speed of movement over 5 min)” value [6] is reported as “excitatory effect”.

In the case of COCCc1ccc(OCC(O)CNC(C)C)cc1 (stereo not drawn) [metoprolol, reference compound], the Papp at 150 min [7] is reported as 13 ×10⁻⁶ cm/s.
